Experimental findings from patent US20230174627A1 (published 2023) are described below.

To fix the notation:
T1: recombinant EBOV GP (Ebola virus (EBOV), UniProt Q05320 33-650)
T1 sequence: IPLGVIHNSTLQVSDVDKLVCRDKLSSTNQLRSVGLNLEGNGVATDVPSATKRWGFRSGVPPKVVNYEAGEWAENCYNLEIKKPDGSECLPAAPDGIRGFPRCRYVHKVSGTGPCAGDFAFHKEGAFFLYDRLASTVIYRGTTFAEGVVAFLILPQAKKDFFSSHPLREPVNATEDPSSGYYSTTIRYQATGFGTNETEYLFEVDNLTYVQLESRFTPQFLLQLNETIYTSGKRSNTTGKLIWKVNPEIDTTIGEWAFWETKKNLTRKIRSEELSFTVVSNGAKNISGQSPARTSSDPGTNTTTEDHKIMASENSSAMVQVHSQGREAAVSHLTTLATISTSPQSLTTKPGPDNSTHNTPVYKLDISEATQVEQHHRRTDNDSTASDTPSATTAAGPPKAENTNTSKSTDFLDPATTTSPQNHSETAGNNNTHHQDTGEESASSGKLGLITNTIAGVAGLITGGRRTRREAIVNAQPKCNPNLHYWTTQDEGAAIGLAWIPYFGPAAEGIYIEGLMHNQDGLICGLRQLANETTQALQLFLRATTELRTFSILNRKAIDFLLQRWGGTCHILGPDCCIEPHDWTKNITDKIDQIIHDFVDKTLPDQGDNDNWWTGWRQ

B1: X10H2 human IgG1 chimeric mAb (antibody, V domains shown)
VH: QVQLEQSGAEVKKPGTSVKVSCKASGFTFGSDAISWVRQAPGQGLEWMGVIIPVVGARTYAEKFQGRITITADTSTSTVFMDLSSIRSDDTAVYYCAREGARAATGHYKSMDIWGRGTLV
VL: EIELTQSPSSLYASVGDKVTITCRASQGISTYLNWYQQKPGKAPKLLIYAASSLQSGVPSRFSGSGSGTEFTLTISSLQPEDFAAVYCQQYNSYPRTFGQGTKVEIK
B2: 17F6 human IgG1 chimeric mAb (antibody, V domains shown)
VH: DVQLQESGPGLVKPSQTVSLTCTVTGISITAGNYRWSWIRQFPGNKLEWIGYIYYSGTIAYNPSLTSRTAITRDSSKNQFFLEMNSLTAEDTATYYCARDRGWLLLDYWGQGTTLTVSS
VL: DVLMTQTPLSLPVSLGDQASISCRSSQTIVHSNGNTYLEWYLQKPGQSPKLLIYKVSSRFSGVPDRFSGSGSGTDFTLKISRVEAEDLGVYYCFQGSHFPYTFGGGTKLEIKR
B3: 16F6 human IgG1 chimeric mAb (antibody, V domains shown)
VH: EVQLVESGGGLVTPGGSLKLSCAASGFAFNYYDMFWVRQNTEKRLEWVAYINSGGGNTYYPDTVKGRFTISRDNAKKTLFLQMSSLRSEDTAMYYCARQLYGNSFFDYWGQGTSLTV
VL: DIVMTQSHKFMSTSVGDRVTITCKASQDVTTAVAWYQQKPGHSPKLLIYWASTRHTGVPDRFTGSGSGTDFTLTLNSVQAEDLALYYCQQHYSTPLTFGAGTKLEL
B4: X10F3 human IgG1 chimeric mAb (antibody, V domains shown)
VH: QVQLEQSGAEVKKPGTSVKVSCKASGFFTFGSDAISWVRQAPGQGLEWMGVIIPVVGARTYAEKFQGRITITADTSTSTVFMDLSSLRSDDTAVYYCAREGARAATGHYKSMDIWGRGRTLV
VL: ELQMTQSPSSLSASVGDRVTITCRASQDIGPFLNWYQHKPGKPPKLLIYDVSNLQDGVPSTFSGSGSGTDFTLTISNLQPEDFATYYCLHYANYPRTFGPGTKVEIK
B5: X10B6 human IgG1 chimeric mAb (antibody, V domains shown)
VH: QVQLEQSGAEVKKPGTSVKVSCKASGFFTFGSDAISWVRQAPGQGLEWMGVIIPVVGARTYAEKFQGRITITADTSTSTVFMDLSSLRSDDTAVYYCAREGARAATGHYKSMDIWGRGRTLV
VL: ELLMTQSPSSLSASVGDRVTITCRASQGISTYLSWFQQKPGKPPKLLIYLTSSLEDGVPSRFSGAGSGTEFTLTISNLQPEDFASYYCLQYQSYPRTFGPGTKVEIK
B6: X10B1 human IgG1 chimeric mAb (antibody, V domains shown)
VH: EVQLLESGPSLVKPSETLTLTCAVSGASISGDYLNWIRQPPGKGLEWIGGIFGSGGSTDYSPSFKSRVTISTDTSKNQFSLKLTSMTTADTAVYFCATALRGARFDAFDFWGQGRRV
VL: DIELTQSPATLSLSPGERATLSCRASQSVSTYLAWYQKKPGQAPRLLFYGASNRATGIPDRFSGRRSGTDFTLTISSLEPEDVGVYYCQQYNKWNSFGQGTKVEIK

The target in the test is T1, recombinant EBOV GP. Briefly: ELISA on plates coated with recombinant EBOV GP.
On to B1, for which the binding result was “no binding”. The value for B2 was “no binding”; that for B3 was “no binding”; that for B4 was “no binding”. To B5 belongs “no binding”; to B6, “no binding”.
